Legend:
Conditions in all cases: 50 nM cytokine coated
FGF-2 = FGF-2 (Homo sapiens, UniProt P09038); experiment: ELISA binding to coated FGF-2
Description: (§1) ELISA plates were coated with cytokines or BSA and further incubated with TNC III1-5 to analyze binding of TNC III1-5 to a wide variety of cytokines. […] Results are depicted in FIG. 3. Method: 50 nM of cytokine was coated for (1 hr, 37° C.). After blocking with 2% BSA (1 hr, RT). 100 nM TNC III1-5 was applied in PBST (0.05% tween, 0.1% bovine serum albumin (BSA)) (1 hr, RT). TNC III1-5 was detected with horseradish peroxidase (HRP)-anti-HIS in PBST (1 hr, RT) and developed with 3,3′,5,5′-tetramethylbenzidine (TMB), a soluble colorimetric HRP […]. Addition of sulfuric acid stop solution changes the color to yellow, enabling accurate measurement of the intensity at 450 nm using a spectrophotometer or plate reader. […] Heparin (4 μM) was added to TNC III1-5 to test the effect of blocking the heparin binding site of TNC III1-5, which has been defined as domain TNC III5 (Weber, Zimmermann, et al., 1995).
(§2) ELISA plates were coated with cytokines or BSA and further incubated with Fg β15-66 to analyze binding of […] to a wide variety of cytokines. […] Results are depicted in FIG. 4. Method: The methods were analogous to those used in Example 3.

BMP-2 = molecular target: T1, BMP-2 (Homo sapiens, UniProt P12643); experiment: ELISA binding to coated BMP-2
T1 sequence (P12643 283-396): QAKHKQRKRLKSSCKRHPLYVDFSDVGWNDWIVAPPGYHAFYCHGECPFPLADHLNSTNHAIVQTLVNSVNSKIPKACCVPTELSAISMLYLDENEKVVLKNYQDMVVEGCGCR
Description: as §1, §2

NT-3 = molecular target: T2, NT-3 (Homo sapiens, UniProt P20783); experiment: ELISA binding to coated NT-3
T2 sequence (P20783 139-257): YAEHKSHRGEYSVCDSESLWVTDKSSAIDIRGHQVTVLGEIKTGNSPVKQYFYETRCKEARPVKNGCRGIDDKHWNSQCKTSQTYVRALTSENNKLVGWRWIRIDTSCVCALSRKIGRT
Description: as §1, §2

PLGF-1 = molecular target: T3, PLGF-1 (Homo sapiens, UniProt P49763); experiment: ELISA binding to coated PLGF-1
T3 sequence (P49763 19-149 isoform P49763-2): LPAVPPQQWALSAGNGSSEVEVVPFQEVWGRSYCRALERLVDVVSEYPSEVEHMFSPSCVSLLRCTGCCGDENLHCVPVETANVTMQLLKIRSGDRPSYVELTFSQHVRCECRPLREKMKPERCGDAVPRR
Description: as §1, §2

PDGF-AB = PDGF-AB (Homo sapiens, UniProt P01127+P04085); experiment: ELISA binding to coated PDGF-AB
Sequence of PDGF-AB (P01127 82-190 limits assumed, other chains not shown): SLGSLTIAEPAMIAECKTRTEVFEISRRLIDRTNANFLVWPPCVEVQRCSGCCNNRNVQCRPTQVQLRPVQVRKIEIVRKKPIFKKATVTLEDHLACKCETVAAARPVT
Description: as §1, §2

FGF-7 = molecular target: T4, FGF-7 (Homo sapiens, UniProt P21781); experiment: ELISA binding to coated FGF-7
T4 sequence (P21781 32-194): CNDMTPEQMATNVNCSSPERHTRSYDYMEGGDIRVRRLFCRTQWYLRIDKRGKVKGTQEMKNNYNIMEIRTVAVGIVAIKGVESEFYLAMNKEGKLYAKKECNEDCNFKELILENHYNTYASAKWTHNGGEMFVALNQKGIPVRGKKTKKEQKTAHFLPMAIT
Description: as §1, §2

VEGF-B = molecular target: T5, VEGF-B (Homo sapiens, UniProt P49765); experiment: ELISA binding to coated VEGF-B
T5 sequence (P49765 22-207): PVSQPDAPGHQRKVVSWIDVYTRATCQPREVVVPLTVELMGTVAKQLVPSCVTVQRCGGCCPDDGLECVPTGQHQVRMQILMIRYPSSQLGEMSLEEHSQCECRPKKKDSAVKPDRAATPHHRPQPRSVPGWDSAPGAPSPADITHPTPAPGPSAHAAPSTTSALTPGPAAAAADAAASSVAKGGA
Description: as §1, §2

TGF-β1 = TGF-β1 (Homo sapiens, UniProt P01137); experiment: ELISA binding to coated TGF-β1
Sequence of TGF-β1 (P01137 279-390 limits assumed, species assumed): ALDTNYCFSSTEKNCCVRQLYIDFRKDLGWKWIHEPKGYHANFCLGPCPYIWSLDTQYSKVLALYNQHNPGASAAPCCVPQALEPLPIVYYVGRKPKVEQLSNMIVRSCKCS
Description: as §1, §2

IGF-BP3 = IGF-BP3 (Homo sapiens, UniProt P17936); experiment: ELISA binding to coated IGF-BP3
Sequence of IGF-BP3 (P17936 28-291, species assumed): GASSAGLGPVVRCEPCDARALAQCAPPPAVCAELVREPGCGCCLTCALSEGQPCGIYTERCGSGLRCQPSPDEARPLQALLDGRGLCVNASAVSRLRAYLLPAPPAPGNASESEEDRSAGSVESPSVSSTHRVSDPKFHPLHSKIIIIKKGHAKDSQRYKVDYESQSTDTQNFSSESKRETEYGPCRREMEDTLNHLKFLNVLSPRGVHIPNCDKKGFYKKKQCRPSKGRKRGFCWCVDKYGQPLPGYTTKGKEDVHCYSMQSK
Description: as §1, §2

FGF-10 = molecular target: T6, FGF-10 (Homo sapiens, UniProt O15520); experiment: ELISA binding to coated FGF-10
T6 sequence (O15520 38-208): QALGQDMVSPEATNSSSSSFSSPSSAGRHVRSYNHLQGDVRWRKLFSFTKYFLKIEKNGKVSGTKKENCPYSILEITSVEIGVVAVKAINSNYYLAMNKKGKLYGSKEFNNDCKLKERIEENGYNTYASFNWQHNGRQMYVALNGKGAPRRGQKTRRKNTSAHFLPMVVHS
Description: as §1, §2

IGF-BP5 = IGF-BP5 (Homo sapiens, UniProt P24593); experiment: ELISA binding to coated IGF-BP5
Sequence of IGF-BP5 (P24593 21-272, species assumed): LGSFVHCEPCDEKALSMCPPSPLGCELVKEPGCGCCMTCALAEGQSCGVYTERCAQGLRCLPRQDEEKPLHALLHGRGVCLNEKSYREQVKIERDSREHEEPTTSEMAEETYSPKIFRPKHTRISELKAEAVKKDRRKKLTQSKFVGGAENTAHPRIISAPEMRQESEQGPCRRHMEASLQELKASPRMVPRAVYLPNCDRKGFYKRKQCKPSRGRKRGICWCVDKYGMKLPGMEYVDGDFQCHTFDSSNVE
Description: as §1, §2

PLGF-2 = molecular target: T7, PLGF-2 (Homo sapiens, UniProt P49763); experiment: ELISA binding to coated PLGF-2
T7 sequence (P49763 19-170 isoform P49763-3 limits assumed): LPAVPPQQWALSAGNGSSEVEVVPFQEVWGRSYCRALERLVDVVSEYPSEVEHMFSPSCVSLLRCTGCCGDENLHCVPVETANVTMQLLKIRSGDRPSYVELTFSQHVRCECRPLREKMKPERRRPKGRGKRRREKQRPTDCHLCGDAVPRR
Description: as §1, §2

BDNF = molecular target: T8, BDNF (Homo sapiens, UniProt P23560); experiment: ELISA binding to coated BDNF
T8 sequence (P23560 129-247): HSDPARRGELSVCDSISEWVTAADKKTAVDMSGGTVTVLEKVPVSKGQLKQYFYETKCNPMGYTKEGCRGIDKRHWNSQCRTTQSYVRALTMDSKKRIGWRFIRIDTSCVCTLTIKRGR
Description: as §1, §2

VEGF-A165 = molecular target: T9, VEGF-A165 (Homo sapiens, UniProt P15692); experiment: ELISA binding to coated VEGF-A165
T9 sequence (P15692 1-191 isoform P15692-4): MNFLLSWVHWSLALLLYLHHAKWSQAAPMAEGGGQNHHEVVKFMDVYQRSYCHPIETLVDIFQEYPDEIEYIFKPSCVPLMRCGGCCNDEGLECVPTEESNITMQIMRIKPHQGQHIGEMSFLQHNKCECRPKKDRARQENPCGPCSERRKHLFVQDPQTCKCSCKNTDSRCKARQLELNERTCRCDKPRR
Description: as §1, §2

PDGF-BB = PDGF-BB (Homo sapiens, UniProt P01127); experiment: ELISA binding to coated PDGF-BB
Sequence of PDGF-BB (P01127 82-190 limits assumed): as the sequence (P01127 82-190 limits assumed, other chains not shown) above
Description: as §1, §2

TGF-β2 = molecular target: T10, TGF-β2 (Homo sapiens, UniProt P61812); experiment: ELISA binding to coated TGF-β2
T10 sequence (P61812 303-414 limits assumed): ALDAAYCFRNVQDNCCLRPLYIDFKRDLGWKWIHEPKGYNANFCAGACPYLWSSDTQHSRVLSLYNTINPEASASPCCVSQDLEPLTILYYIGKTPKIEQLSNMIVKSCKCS
Description: as §1, §2

Sequence of FGF-2 (P09038 143-288, species assumed): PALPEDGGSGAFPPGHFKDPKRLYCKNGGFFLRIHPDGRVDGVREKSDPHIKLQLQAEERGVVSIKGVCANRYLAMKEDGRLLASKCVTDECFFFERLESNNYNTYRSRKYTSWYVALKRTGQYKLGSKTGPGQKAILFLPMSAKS

B1: TNC III1-5: recombinant tenascin C fibronectin type III repeats 1-5 (E622 to A1074) with transglutaminase substrate NQEQVSPL and 6×His tag, SEQ ID NO:1 (protein)
chain: METDTLLLWVLLLWVPGSTGDAAQPAIEGRNQEQVSPLGGSEVSPPKDLVVTEVTEETVNLAWDNEMRVTEYLVVYTPTHEGGLEMQFRVPGDQTSTIIQELEPGVEYFIRVFAILENKKSIPVSARVATYLPAPEGLKFKSIKETSVEVEWDPLDIAFETWEIIFRNMNKEDEGEITKSLRRPETSYRQTGLAPGQEYEISLHIVKNNTRGPGLKRVTTTRLDAPSQIEVKDVTDTTALITWFKPLAEIDGIELTYGIKDVPGDRTTIDLTEDENQYSIGNLKPDTEYEVSLISRRGDMSSNPAKETFTTGLDAPRNLRRVSQTDNSITLEWRNGKAAIDSYRIKYAPISGGDHAEVDVPKSQQATTKTTLTGLRPGTEYGIGVSAVKEDKESNPATINAATELDTPKDLQVSETAETSLTLLWKTPLAKFDRYRLNYSLPTGQWVGVQLPRNTTSYVLRGLEPGQEYNVLLTAEKGRHKSKPARVKASTEQAGGGSHHHHHH
modifications: Tenascin III signal sequence with polyhistidine tag
In the case of B1, the “binding to FGF-2 (ELISA, signal above BSA background)” value (FGF-2) is reported as “positive binding”, the “binding to BMP-2 (ELISA, signal above BSA background)” value (BMP-2) is reported as “positive binding” and the “binding to NT-3 (ELISA, signal above BSA background)” value (NT-3) is reported as “positive binding”. The “binding to PLGF-1 (ELISA, signal above BSA background)” value (PLGF-1) was “positive binding”, the “binding to PDGF-AB (ELISA, signal above BSA background)” value (PDGF-AB) was “positive binding” and the “binding to FGF-7 (ELISA, signal above BSA background)” value (FGF-7) was “positive binding”. The “binding to VEGF-B (ELISA, signal above BSA background)” value (VEGF-B) was “positive binding”, the “binding to TGF-β1 (ELISA, signal above BSA background)” value (TGF-β1) was “positive binding” and the “binding to IGF-BP3 (ELISA, signal above BSA background)” value (IGF-BP3) was “positive binding”. The “binding to FGF-10 (ELISA, signal above BSA background)” value (FGF-10) was “positive binding”, the “binding to IGF-BP5 (ELISA, signal above BSA background)” value (IGF-BP5) was “positive binding” and the “binding to PLGF-2 (ELISA, signal above BSA background)” value (PLGF-2) was “positive binding”. For the same molecule, the “binding to BDNF (ELISA, signal above BSA background)” value (BDNF) was “positive binding”, the “binding to VEGF-A165 (ELISA, signal above BSA background)” value (VEGF-A165) was “positive binding” and the “binding to PDGF-BB (ELISA, signal above BSA background)” value (PDGF-BB) was “positive binding”. For the same molecule, the “binding to TGF-β2 (ELISA, signal above BSA background)” value (TGF-β2) was “positive binding”.

B2: Fg β15-66: heparin-binding domain of human fibrinogen β chain aa15-66 (SEQ ID NO:8); construct with TG substrate and His tag, SEQ ID NO:2 (protein)
chain: GSNQEQVSPLGHRPLDKKREEAPSLRPAPPPISGGGYRARPAKAAATQKKVERKAPDAGGCGHHHHHH
modifications: GS linker, transglutaminase substrate, the Fg beta15-66, with a Histidine tag
With B2 the “binding to FGF-2 (ELISA, signal above BSA background)” value (FGF-2) was “positive binding”, the “binding to BMP-2 (ELISA, signal above BSA background)” value (BMP-2) was “positive binding” and the “binding to NT-3 (ELISA, signal above BSA background)” value (NT-3) was “positive binding”. For the same molecule, the “binding to PLGF-1 (ELISA, signal above BSA background)” value (PLGF-1) was “did not bind”, the “binding to PDGF-AB (ELISA, signal above BSA background)” value (PDGF-AB) was “positive binding” and the “binding to FGF-7 (ELISA, signal above BSA background)” value (FGF-7) was “positive binding”. The “binding to VEGF-B (ELISA, signal above BSA background)” value (VEGF-B) was “positive binding”, the “binding to TGF-β1 (ELISA, signal above BSA background)” value (TGF-β1) was “positive binding” and the “binding to IGF-BP3 (ELISA, signal above BSA background)” value (IGF-BP3) was “positive binding”. For the same molecule, the “binding to FGF-10 (ELISA, signal above BSA background)” value (FGF-10) was “positive binding”, the “binding to IGF-BP5 (ELISA, signal above BSA background)” value (IGF-BP5) was “positive binding” and the “binding to PLGF-2 (ELISA, signal above BSA background)” value (PLGF-2) was “positive binding”. The “binding to BDNF (ELISA, signal above BSA background)” value (BDNF) was “positive binding”, the “binding to VEGF-A165 (ELISA, signal above BSA background)” value (VEGF-A165) was “positive binding” and the “binding to PDGF-BB (ELISA, signal above BSA background)” value (PDGF-BB) was “positive binding”. For the same molecule, the “binding to TGF-β2 (ELISA, signal above BSA background)” value (TGF-β2) was “positive binding”.
